{"source": "patent US12365875B2", "about": "“Methods for generating skeletal muscle progenitor cells” (The Regents of the University of California, priority 2017, dated 2025)", "molecules": {"B1": {"name": "WNT7A: Wnt family member added to SKBM2 expansion media (protein, UniProt O00755 32-349, looked up)", "Protein Wnt-7a": "LGASIICNKIPGLAPRQRAICQSRPDAIIVIGEGSQMGLDECQFQFRNGRWNCSALGERTVFGKELKVGSREAAFTYAIIAAGVAHAITAACTQGNLSDCGCDKEKQGQYHRDEGWKWGGCSADIRYGIGFAKVFVDAREIKQNARTLMNLHNNEAGRKILEENMKLECKCHGVSGSCTTKTCWTTLPQFRELGYVLKDKYNEAVHVEPVRASRNKRPTFLKIKKPLSYRKPMDTDLVYIEKSPNYCEEDPVTGSVGTQGRACNKTAPQASGCDLMCCGRGYNTHQYARVWQCNCKFHWCCYVKCNTCSERTEMYTCK"}}, "tested_on": "hPSC-SMPCs", "test": "Passaging and expansion of hPSC-SMPCs with added factors, gene expression", "type": "cell-based, human", "procedure": "At day 50, myogenic genes PAX7, MYF5, MYOD, MYOG, and MYH3 were measured by QPCR and expressed as fold-change versus day 35 of directed differentiation. […] Subsequently, IGF-1 was added to N2 media in all experiments (FIGS. 5-8, 10A-10D, 10F, 11, and 12A-12E). […] Subsequently, FGF2 was added to SkBM-2 media in experiments (FIGS. 5-8, 10A-10D, 10F, 11, and 12A-12E).\nHiPSC-SMPC subpopulations enrich for PAX7 but activate and increase expression of MYOD after passaging. […] (FIG. 9A).", "data": [{"molecule": "B1", "values": [{"measurement": "stemness factors HEYL and CJUN", "setting": "passaged SMPCs in SKBM2", "result": "stabilize or increase stemness factors"}, {"measurement": "PAX7 expression during expansion", "setting": "passaged SMPCs, compared to SKBM2 alone", "result": "rescues PAX7 expression"}]}]}
